Data from paper PMC2642989, “Enhancement of the Seed-Target Recognition Step in RNA Silencing by a PIWI/MID Domain Protein”.

What was measured:
AfPiwi [1] = target: T1, AfPiwi (UniProt O28951 1-427); experiment: ITC; target into AfPiwi-guide; 10 mM Mg2+; isolation 1490 nM; ITC: 50 mM Tris pH 7.5, 150 mM KCl, 5% glycerol, 10 mM MgCl2, 1 mM DTT, 20 C; guide 3.5-24 uM in cell with 3-4 fold excess AfPiwi, target in syringe; conditions: protein: recombinant; T:G mismatch at guide position 10
T1 sequence: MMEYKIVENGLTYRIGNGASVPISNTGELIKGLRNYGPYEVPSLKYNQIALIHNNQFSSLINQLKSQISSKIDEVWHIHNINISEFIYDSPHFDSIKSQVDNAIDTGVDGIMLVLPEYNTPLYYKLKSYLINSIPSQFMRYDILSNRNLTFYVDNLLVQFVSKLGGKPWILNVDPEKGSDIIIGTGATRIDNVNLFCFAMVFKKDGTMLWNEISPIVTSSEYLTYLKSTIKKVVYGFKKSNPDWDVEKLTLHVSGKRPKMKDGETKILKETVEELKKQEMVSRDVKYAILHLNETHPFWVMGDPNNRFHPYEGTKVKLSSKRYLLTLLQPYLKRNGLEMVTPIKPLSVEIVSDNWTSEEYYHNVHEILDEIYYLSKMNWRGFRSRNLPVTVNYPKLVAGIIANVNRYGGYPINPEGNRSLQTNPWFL

AfPiwi [2] = target: T1, AfPiwi; experiment: ITC; target into AfPiwi-guide; 10 mM Mg2+; isolation 1280 nM; ITC: 50 mM Tris pH 7.5, 150 mM KCl, 5% glycerol, 10 mM MgCl2, 1 mM DTT, 20 C; guide 3.5-24 uM in cell with 3-4 fold excess AfPiwi, target in syringe; conditions: protein: recombinant; one mismatch
AfPiwi [3] = target: T1, AfPiwi; experiment: ITC; target into AfPiwi-guide; 10 mM Mg2+; isolation 1.83 uM; ITC: 50 mM Tris pH 7.5, 150 mM KCl, 5% glycerol, 10 mM MgCl2, 1 mM DTT, 20 C; guide 3.5-24 uM in cell with 3-4 fold excess AfPiwi, target in syringe; conditions: protein: recombinant
AfPiwi [4] = target: T1, AfPiwi; experiment: ITC; target into AfPiwi-guide; 10 mM Mg2+; isolation 926 nM; ITC: 50 mM Tris pH 7.5, 150 mM KCl, 5% glycerol, 10 mM MgCl2, 1 mM DTT, 20 C; guide 3.5-24 uM in cell with 3-4 fold excess AfPiwi, target in syringe; conditions: protein: recombinant; T:G mismatch at guide position 1
AfPiwi [5] = target: T1, AfPiwi; experiment: ITC; target into AfPiwi-guide; 10 mM Mg2+; isolation 7520 nM; ITC: 50 mM Tris pH 7.5, 150 mM KCl, 5% glycerol, 10 mM MgCl2, 1 mM DTT, 20 C; guide 3.5-24 uM in cell with 3-4 fold excess AfPiwi, target in syringe; conditions: protein: recombinant; one mismatch
AfPiwi [6] = target: T1, AfPiwi; experiment: ITC; target into AfPiwi-guide; 10 mM Mg2+; isolation 725 nM in text, 990 nM in Table 2; ITC: 50 mM Tris pH 7.5, 150 mM KCl, 5% glycerol, 10 mM MgCl2, 1 mM DTT, 20 C; guide 3.5-24 uM in cell with 3-4 fold excess AfPiwi, target in syringe; conditions: protein: recombinant
AfPiwi [7] = target: T1, AfPiwi; experiment: ITC; AfPiwi into preformed duplex; endothermic; ITC: 50 mM Tris pH 7.5, 150 mM KCl, 5% glycerol, 10 mM MgCl2, 1 mM DTT, 20 C; guide 3.5-24 uM in cell with 3-4 fold excess AfPiwi, target in syringe; conditions: protein: recombinant; blunt
AfPiwi [8] = target: T1, AfPiwi; experiment: ITC; target into AfPiwi-guide; 10 mM Mg2+; isolation 794 nM; ITC: 50 mM Tris pH 7.5, 150 mM KCl, 5% glycerol, 10 mM MgCl2, 1 mM DTT, 20 C; guide 3.5-24 uM in cell with 3-4 fold excess AfPiwi, target in syringe; conditions: protein: recombinant; A:G mismatch at guide position 4
AfPiwi [9] = target: T1, AfPiwi; experiment: ITC; target into AfPiwi-guide; 10 mM Mg2+; isolation 4600 nM; ITC: 50 mM Tris pH 7.5, 150 mM KCl, 5% glycerol, 10 mM MgCl2, 1 mM DTT, 20 C; guide 3.5-24 uM in cell with 3-4 fold excess AfPiwi, target in syringe; conditions: protein: recombinant
AfPiwi [10] = target: T1, AfPiwi; experiment: ITC; target into AfPiwi-guide; 10 mM Mg2+; isolation 14600 nM; ITC: 50 mM Tris pH 7.5, 150 mM KCl, 5% glycerol, 10 mM MgCl2, 1 mM DTT, 20 C; guide 3.5-24 uM in cell with 3-4 fold excess AfPiwi, target in syringe; conditions: protein: recombinant; one mismatch
AfPiwi [11] = target: T1, AfPiwi; experiment: ITC; target into AfPiwi-guide; 10 mM Mg2+; isolation 3.6 nM; ITC: 50 mM Tris pH 7.5, 150 mM KCl, 5% glycerol, 10 mM MgCl2, 1 mM DTT, 20 C; guide 3.5-24 uM in cell with 3-4 fold excess AfPiwi, target in syringe; conditions: protein: recombinant; 11 bp, guide 3' overhang 1 nt
AfPiwi [12] = target: T1, AfPiwi; experiment: ITC; target into AfPiwi-guide; 10 mM Mg2+; isolation 206 nM; ITC: 50 mM Tris pH 7.5, 150 mM KCl, 5% glycerol, 10 mM MgCl2, 1 mM DTT, 20 C; guide 3.5-24 uM in cell with 3-4 fold excess AfPiwi, target in syringe; conditions: protein: recombinant; T:G mismatch at guide position 8

B1: Fig 5G DNA T:G mismatch at position 10 (dsDNA)
DNA 1: TGTAGGTTGTAT
DNA 2: ATGCAACC
modifications: guide 5' phosphate
Question: How did the Kd (AfPiwi [1]) turn out when B1 was run?
Answer: 2850 ± 350 nM

B2: Fig 5D RNA mismatch (dsRNA)
RNA 1: UGUAGGUU
RNA 2: ACCUGC
modifications: guide 5' phosphate
Question: For B2, which Kd (AfPiwi [2]) is on record?
Answer: 2030 ± 150 nM

B3: Fig 3C DNA guide / RNA target (seed) (DNA:RNA)
DNA: TGTAGGTT
RNA: AACCUAC
modifications: guide 5' phosphate
Question: How did the Kd (AfPiwi [3]) turn out when B3 was run?
Answer: 28 nM

B4: Fig 5H DNA T:G mismatch at position 1 (dsDNA)
DNA 1: TGTAGGTT
DNA 2: AACCTACG
modifications: guide 5' phosphate
Question: With B4 as the binder, how does the Kd (AfPiwi [4]) read?
Answer: 17 ± 1.1 nM

B5: Fig 5E DNA mismatch (dsDNA)
DNA 1: TGTAGGTT
DNA 2: AACCTGCA
modifications: guide 5' phosphate
Question: For B5, which Kd (AfPiwi [5]) is on record?
Answer: 452 ± 27 nM

B6: Fig 3A DNA guide / DNA target (seed) (dsDNA)
DNA 1: TGTAGGTT
DNA 2: AACCTACA
modifications: guide 5' phosphate
Question: With B6 as the binder, how does the Kd (AfPiwi [6]) read?
Answer: 29.2 ± 2 nM

B7: Fig S3 preformed DNA duplex (dsDNA)
DNA 1: TTGAGTTT
DNA 2: AAACTCAA
modifications: 5' phosphate on strand 1
Question: Does B7 bind (AfPiwi [7])?
Answer: binds

B8: Fig 5A RNA A:G mismatch at position 4 (dsRNA)
RNA 1: UGUAGGUU
RNA 2: AACCGACA
modifications: guide 5' phosphate
Question: For B8, which Kd (AfPiwi [8]) is on record?
Answer: 1160 ± 260 nM

B9: Fig 3B RNA guide / RNA target (seed) (dsRNA)
RNA 1: UUGUUUGU
RNA 2: ACAAACA
modifications: guide 5' phosphate
Question: B9 was tested. Which Kd (AfPiwi [9]) did it give?
Answer: 82.2 ± 2.7 nM

B10: Fig 5B RNA mismatch (dsRNA)
RNA 1: UUGUUUGU
RNA 2: ACAAGCA
modifications: guide 5' phosphate
Question: B10 was tested. Which Kd (AfPiwi [10]) did it give?
Answer: 152 ± 16 nM

B11: G12 guide / T11 target (dsDNA)
DNA 1: TGTAGGTTGCAT
DNA 2: TGCAACCTACA
modifications: guide (G12) 5' phosphate
Question: How did the Kd (AfPiwi [11]) turn out when B11 was run?
Answer: 8.4 nM

B12: Fig 5F DNA T:G mismatch at position 8 (dsDNA)
DNA 1: TGTAGGTTGCAT
DNA 2: TGCGACCT
modifications: guide 5' phosphate
Question: With B12 as the binder, how does the Kd (AfPiwi [12]) read?
Answer: 672 ± 82 nM
